The target of test [1] is CD52 displayed on virus-like particles (CD52 VLP) (UniProt P31358). The test can be described thus: SPR (Biacore), CD52 VLP captured by Campath and crosslinked on C1 chip, mAb injected; second curve. For orientation: Surface plasmon resonance follows binding to a sensor surface in real time, without labels.
Test [2] shares this target. The test is described as follows: SPR (Biacore), CD52 VLP captured by Campath and crosslinked on C1 chip, mAb injected.
The target of test [3] is C-terminal 6×His-tagged hCXCR5 whole receptor protein (human) (UniProt P32302). The test is described as follows: SPR (Biacore), whole receptor captured and crosslinked on NTA chip at 700 RU, analyte injected; mean of triplicate.
Test [4] concerns the target biotinylated N-terminal hCXCR5 peptide (human). The test is described as follows: SPR (Biacore), reversed format: biotinylated peptide on SA chip, mAb injected; mean.
Test [5] concerns the target hCXCR5 N-terminal peptide (human). The test can be described thus: SPR (Biacore), conventional format: mAb captured by anti-mouse antibody on CM5 chip, peptide injected; mean.
For test [6], the target named is C-terminal 6×His-tagged hCXCR5 whole receptor protein (human) (UniProt P32302). The test can be described thus: SPR (Biacore), whole receptor captured and crosslinked on NTA chip at 300 RU, analyte injected; mean of triplicate.
The target of test [7] is biotinylated N-terminal hCXCR5 peptide (human). The test can be described thus: SPR (Biacore), reversed format, biotinylated peptide on SA chip at 5 RU; mean.
Test [8] shares this target. The test is described as follows: SPR (Biacore), reversed format, biotinylated peptide on SA chip at 100 RU; mean.
Test [9] has the same target. The test is described as follows: SPR (Biacore), reversed format, biotinylated peptide on SA chip at 20 RU; mean.
The target is the same in test [10]. The test can be described thus: SPR (Biacore), reversed format, biotinylated peptide on SA chip at 100 RU; mean; called artificial, outside the Biacore accuracy limit.
Test [11] deals with T1, C-terminal 6×His-tagged hCXCR5 whole receptor protein (human, UniProt P32302 1-372, crosslinked on the chip with NHS/EDC after capture).
T1 construct: mature; Purified whole receptor (monomers, dimers and trimers on SDS-PAGE), captured on a Ni-NTA chip and stabilized by limited crosslinking; also called human CXCR5 receptor; 6×His-hCXCR5
T1 sequence: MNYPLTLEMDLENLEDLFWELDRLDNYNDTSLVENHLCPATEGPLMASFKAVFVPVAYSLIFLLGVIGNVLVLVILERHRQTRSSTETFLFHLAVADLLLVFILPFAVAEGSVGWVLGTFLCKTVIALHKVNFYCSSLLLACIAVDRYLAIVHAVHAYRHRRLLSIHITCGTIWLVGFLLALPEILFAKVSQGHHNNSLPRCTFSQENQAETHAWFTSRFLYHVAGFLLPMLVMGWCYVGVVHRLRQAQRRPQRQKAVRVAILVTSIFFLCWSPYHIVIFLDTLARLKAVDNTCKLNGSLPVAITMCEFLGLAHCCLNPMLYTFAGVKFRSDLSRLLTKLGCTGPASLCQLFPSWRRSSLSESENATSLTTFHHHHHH
The test can be described thus: SPR (Biacore), whole receptor captured and crosslinked on NTA chip at 300 RU, analyte injected; mean of triplicate.
Procedure: For direct capturing by an NTA SPR sensor chip, the purified 6×His-hCXCR5 protein was diluted to 50 ug/ml with HBS—N (from GE) buffer. An NTA reagent kit (GE) was used for chip surface preparation. The flow rate was set to 5 ul/ml and HBS—N was used as the running buffer. […] In order to stabilize native-like structure of the receptor captured on the chip surface, the commonly used amine coupling reagent NHS/EDC was tested at different concentrations as shown in FIGS. 11 and 12.
In order to assess the impact of the avidity effect on this capture and stabilization method, chip surfaces with different receptor densities were prepared.

The target in test [12] is biotinylated N-terminal hCXCR5 peptide (human). The test can be described thus: SPR (Biacore), reversed format: biotinylated peptide on SA chip; the reference of the comparison is not named (by Table 2, the other two clones).
Test [13] shares this target. The test can be described thus: SPR (Biacore), reversed format, biotinylated peptide on SA chip at 100 RU; mean; affected by avidity and artificial Koff.
Test [14] addresses T1, C-terminal 6×His-tagged hCXCR5 whole …. The test is described as follows: SPR (Biacore), whole receptor captured and crosslinked on NTA chip at 700 RU, analyte injected; mean of triplicate.

With anti-CD52 mAb (Campath) (antibody), in test [1], the Kd was 5810 pM; the koff – broadly, the rate constant with which the complex falls apart – was found to be 0.000937 s⁻¹; the kon (as a rule, the second-order rate constant of association) turned out to be 161000 M⁻¹ s⁻¹. In test [2], the Kd worked out at 5750 pM, the koff came out at 0.00109 s⁻¹ and the kon is 189000 M⁻¹ s⁻¹.

mouse anti-hCXCR5 mAb MAB190 (antibody): the Kd is 256 pM in test [3]; 141 pM in test [4]; 656 pM in test [5]; 610 pM in test [6]; 164 pM in [7]; 39.4 pM in test [8]. In test [9], the Kd was determined as 66.8 pM. For the same molecule, the koff in test [3] was found to be 0.000307 s⁻¹; in [4], 0.000595 s⁻¹; in test [5], 0.00027 s⁻¹; in [6], 0.000423 s⁻¹; in test [7], 0.000711 s⁻¹; in [8], 0.000256 s⁻¹. Further, the koff in test [9] worked out at 0.000511 s⁻¹. For the same molecule, the kon in [3] was 1.2e+06 M⁻¹ s⁻¹; in test [4], 4.23e+06 M⁻¹ s⁻¹; in test [5], 408000 M⁻¹ s⁻¹; in test [6] it was 694000 M⁻¹ s⁻¹; in test [7] it was 4.33e+06 M⁻¹ s⁻¹; in [8], 6.5e+06 M⁻¹ s⁻¹. The kon in test [9] amounted to 7.65e+06 M⁻¹ s⁻¹.

B1: mouse anti-hCXCR5 mAb clone 16D7 (antibody, V domains shown)
VH: QVQLKESGPGLVAPSQSLSITCTVSGFSLIDYGVNWIRQPPGKGLEWLGVIWGDGTTYYNSALKSRLSIRKDNSQSQVFLKMNSLQTDDTAMYYCARIVYWGQGTLVTVSA
VL: DIVMTQAAPSVAVTPRESVSISCRSSKSLLHSSGKTYLYWFLQRPGQSPQLLIYRMSNLASGVPDRFSGSGSGTAFTLRISRVEAEDVGVYYCMQHLEYPYTFGGGTKLEIK
Turning to B1, the koff in test [10] was 9.85e-08 s⁻¹; in [4], 4.59e-05 s⁻¹; in test [5], 0.000241 s⁻¹; in [11] it was 9.62e-06 s⁻¹; in test [14], 1.28e-05 s⁻¹; in [7], 4.71e-05 s⁻¹. In test [9], this molecule came in with a koff of 2.7e-05 s⁻¹. Further, the Kd was found to be 65 pM in [4]; 503 pM in [5]; 39.9 pM in test [11]; 0.0974 pM in [13]; 39.6 pM in test [14]; 70.2 pM in test [7]. In test [9], this molecule registered a Kd of 32.5 pM. The kon amounted to 708000 M⁻¹ s⁻¹ in test [4]; 480000 M⁻¹ s⁻¹ in [5]; 240000 M⁻¹ s⁻¹ in test [11]; 318000 M⁻¹ s⁻¹ in test [14]; 681000 M⁻¹ s⁻¹ in test [7]; 1.01e+06 M⁻¹ s⁻¹ in [8]. In test [9], this molecule returned a kon of 832000 M⁻¹ s⁻¹. In test [12], this molecule came in with a fold slower off-rate of more than 10 fold.

B2: CXCL13 (ligand, UniProt O43927 23-109, looked up)
chain: VLEVYYTSLRCRCVQESSVFIPRRFIDRIQILPRGNGCPRKEIIVWKKNKSIVCVDPQAEWIQRMMEVLRKRSSSTLPVPVFKRKIP
notes: also called hCXCR5 ligand
Turning to B2, in [11], the Kd was found to be 1370 pM, the off-rate constant (koff) was determined as 0.00718 s⁻¹ and the association rate constant (kon) came out at 5.26e+06 M⁻¹ s⁻¹. In test [14], this molecule gave a Kd of 891 pM, a koff of 0.00553 s⁻¹ and a kon of 6.25e+06 M⁻¹ s⁻¹.

(Values after patent US20140256918A1 (published 2014).)
